According to the supplement of paper PMC9112550, “Optimization of the antimicrobial peptide Bac7 by deep mutational scanning” (BMC Biology, 2022):
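Also: peptides expressed intracellularly from a pBAD plasmid library in pooled LB shake-flask culture, induced with 0.3% L-arabinose, DNA abundance read by NGS, three biological replicates, DESeq2 with apeglm shrinkage.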

These sequences were tested on Escherichia coli TOP10 (assay: shrunken log2 fold change of peptide-encoding DNA abundance (4.5 h post-induction vs induction); higher = less antimicrobial activity (less host growth inhibition)). Conditions: time post-induction: 4.5 h; library: site-saturation at positions 5, 18, 19, 20.
For RRIRHRPPRLPRPRPRPDPLPRP, the “shrunken log2 fold change” value was -0.106. For RRIRCRPPRLPRPRPRPSDLPRP, the “shrunken log2 fold change” value was -0.0943. With RRIRCRPPRLPRPRPRPTPNPRP the “shrunken log2 fold change” value was 0.786. In the case of RRIRQRPPRLPRPRPRPWKMPRP, the “shrunken log2 fold change” value is reported as -0.112. In the case of RRIRTRPPRLPRPRPRPLIHPRP, the “shrunken log2 fold change” value is reported as -0.552. RRIRDRPPRLPRPRPRPYLVPRP was tested, and the “shrunken log2 fold change” value was -0.506. In the case of RRIRARPPRLPRPRPRPRWEPRP, the “shrunken log2 fold change” value is reported as 0.431. RRIRGRPPRLPRPRPRPYHCPRP was tested, and the “shrunken log2 fold change” value was -0.0643. For RRIRVRPPRLPRPRPRPYWQPRP, the “shrunken log2 fold change” value was -0.0663. RRIRYRPPRLPRPRPRPWLTPRP was tested, and the “shrunken log2 fold change” value was -0.558. For RRIRPRPPRLPRPRPRPHHGPRP, the “shrunken log2 fold change” value was 0.0245. RRIRGRPPRLPRPRPRPDKKPRP was tested, and the “shrunken log2 fold change” value was 0.878. RRIRIRPPRLPRPRPRPNNCPRP was tested, and the “shrunken log2 fold change” value was -0.0753. RRIRWRPPRLPRPRPRPQIWPRP was tested, and the “shrunken log2 fold change” value was 0.0603. With RRIRWRPPRLPRPRPRPFELPRP the “shrunken log2 fold change” value was -0.285. RRIRMRPPRLPRPRPRPGVLPRP was tested, and the “shrunken log2 fold change” value was 0.135. For RRIRYRPPRLPRPRPRPGPEPRP, the “shrunken log2 fold change” value was 0.0444. With RRIRKRPPRLPRPRPRPKPCPRP the “shrunken log2 fold change” value was 0.0204. RRIRWRPPRLPRPRPRPDLRPRP was tested, and the “shrunken log2 fold change” value was -0.00728. With RRIRWRPPRLPRPRPRPRFHPRP the “shrunken log2 fold change” value was -0.293. RRIRMRPPRLPRPRPRPMWPPRP was tested, and the “shrunken log2 fold change” value was 0.0917. RRIRQRPPRLPRPRPRPGGFPRP was tested, and the “shrunken log2 fold change” value was 0.0441. For RRIRDRPPRLPRPRPRPVYEPRP, the “shrunken log2 fold change” value was -0.105. RRIRVRPPRLPRPRPRPGGYPRP was tested, and the “shrunken log2 fold change” value was 0.0682. In the case of RRIRFRPPRLPRPRPRPEAVPRP, the “shrunken log2 fold change” value is reported as 0.323. In the case of RRIRQRPPRLPRPRPRPIKAPRP, the “shrunken log2 fold change” value is reported as 0.00249. RRIRWRPPRLPRPRPRPIQWPRP was tested, and the “shrunken log2 fold change” value was 0.25. For RRIRHRPPRLPRPRPRPCTAPRP, the “shrunken log2 fold change” value was 0.0655. For RRIRWRPPRLPRPRPRPWCYPRP, the “shrunken log2 fold change” value was -0.475. With RRIRNRPPRLPRPRPRPTIPPRP the “shrunken log2 fold change” value was -0.605. RRIRFRPPRLPRPRPRPQWQPRP was tested, and the “shrunken log2 fold change” value was -0.08. For RRIRYRPPRLPRPRPRPDGPPRP, the “shrunken log2 fold change” value was 0.123. In the case of RRIRPRPPRLPRPRPRPQWHPRP, the “shrunken log2 fold change” value is reported as -0.176. In the case of RRIRSRPPRLPRPRPRPGTIPRP, the “shrunken log2 fold change” value is reported as -0.263. RRIRKRPPRLPRPRPRPEDRPRP was tested, and the “shrunken log2 fold change” value was 0.206. With RRIRGRPPRLPRPRPRPRWTPRP the “shrunken log2 fold change” value was 0.43. For RRIRNRPPRLPRPRPRPVENPRP, the “shrunken log2 fold change” value was -0.0754. For RRIRCRPPRLPRPRPRPSSPPRP, the “shrunken log2 fold change” value was -0.461. For RRIRIRPPRLPRPRPRPGFWPRP, the “shrunken log2 fold change” value was 0.0561. For RRIRLRPPRLPRPRPRPHPGPRP, the “shrunken log2 fold change” value was 0.242. In the case of RRIRVRPPRLPRPRPRPLIQPRP, the “shrunken log2 fold change” value is reported as -0.351. RRIRIRPPRLPRPRPRPHGPPRP was tested, and the “shrunken log2 fold change” value was 0.0659. For RRIRFRPPRLPRPRPRPDTQPRP, the “shrunken log2 fold change” value was 0.0363. With RRIRYRPPRLPRPRPRPGFIPRP the “shrunken log2 fold change” value was 2.02. For RRIRMRPPRLPRPRPRPRLPPRP, the “shrunken log2 fold change” value was 0.805. For RRIRSRPPRLPRPRPRPPVDPRP, the “shrunken log2 fold change” value was 0.327. For RRIRHRPPRLPRPRPRPTGWPRP, the “shrunken log2 fold change” value was 0.841. For RRIRMRPPRLPRPRPRPSTTPRP, the “shrunken log2 fold change” value was 0.352. In the case of RRIRARPPRLPRPRPRPKLLPRP, the “shrunken log2 fold change” value is reported as 0.00678. For RRIRTRPPRLPRPRPRPMLCPRP, the “shrunken log2 fold change” value was -0.00838. RRIRCRPPRLPRPRPRPARVPRP was tested, and the “shrunken log2 fold change” value was 0.453. With RRIRSRPPRLPRPRPRPIIVPRP the “shrunken log2 fold change” value was 0.0771. With RRIRYRPPRLPRPRPRPRVSPRP the “shrunken log2 fold change” value was -0.216. In the case of RRIRCRPPRLPRPRPRPVISPRP, the “shrunken log2 fold change” value is reported as -0.154. For RRIRRRPPRLPRPRPRPRIHPRP, the “shrunken log2 fold change” value was -0.113. RRIRTRPPRLPRPRPRPPDGPRP was tested, and the “shrunken log2 fold change” value was -0.0813. With RRIRMRPPRLPRPRPRPICWPRP the “shrunken log2 fold change” value was 0.0409. For RRIRYRPPRLPRPRPRPEFLPRP, the “shrunken log2 fold change” value was -0.252. RRIRIRPPRLPRPRPRPHNHPRP was tested, and the “shrunken log2 fold change” value was -0.93. For RRIRIRPPRLPRPRPRPDPHPRP, the “shrunken log2 fold change” value was -0.314. RRIRVRPPRLPRPRPRPVQHPRP was tested, and the “shrunken log2 fold change” value was -0.0336. RRIRARPPRLPRPRPRPLWHPRP was tested, and the “shrunken log2 fold change” value was 0.108. With RRIRGRPPRLPRPRPRPRIFPRP the “shrunken log2 fold change” value was 0.804. With RRIRLRPPRLPRPRPRPPTVPRP the “shrunken log2 fold change” value was 0.026. In the case of RRIRCRPPRLPRPRPRPYDTPRP, the “shrunken log2 fold change” value is reported as -0.308. For RRIRGRPPRLPRPRPRPSWPPRP, the “shrunken log2 fold change” value was 0.384. RRIRGRPPRLPRPRPRPRINPRP was tested, and the “shrunken log2 fold change” value was -0.122. For RRIRSRPPRLPRPRPRPQEGPRP, the “shrunken log2 fold change” value was -0.0317. RRIRVRPPRLPRPRPRPGIPPRP was tested, and the “shrunken log2 fold change” value was -0.103. In the case of RRIRGRPPRLPRPRPRPLHVPRP, the “shrunken log2 fold change” value is reported as -0.0922. For RRIRIRPPRLPRPRPRPISDPRP, the “shrunken log2 fold change” value was -0.0354. With RRIRARPPRLPRPRPRPFHAPRP the “shrunken log2 fold change” value was -0.0904. With RRIRYRPPRLPRPRPRPFSNPRP the “shrunken log2 fold change” value was 0.0549. In the case of RRIRCRPPRLPRPRPRPIKDPRP, the “shrunken log2 fold change” value is reported as -0.533. With RRIRQRPPRLPRPRPRPLDTPRP the “shrunken log2 fold change” value was -0.144. For RRIRMRPPRLPRPRPRPEKQPRP, the “shrunken log2 fold change” value was 2.16. In the case of RRIRERPPRLPRPRPRPDFYPRP, the “shrunken log2 fold change” value is reported as -0.491. RRIRIRPPRLPRPRPRPLNLPRP was tested, and the “shrunken log2 fold change” value was -0.597. In the case of RRIRWRPPRLPRPRPRPYAFPRP, the “shrunken log2 fold change” value is reported as 0.107. RRIRFRPPRLPRPRPRPQIFPRP was tested, and the “shrunken log2 fold change” value was -0.172. For RRIRNRPPRLPRPRPRPNWQPRP, the “shrunken log2 fold change” value was -0.123. In the case of RRIRTRPPRLPRPRPRPETLPRP, the “shrunken log2 fold change” value is reported as 0.0577. With RRIRARPPRLPRPRPRPEEHPRP the “shrunken log2 fold change” value was -0.0106. For RRIRLRPPRLPRPRPRPTRAPRP, the “shrunken log2 fold change” value was 0.498. For RRIRERPPRLPRPRPRPNYCPRP, the “shrunken log2 fold change” value was -0.0596. In the case of RRIRYRPPRLPRPRPRPGHKPRP, the “shrunken log2 fold change” value is reported as -0.485. In the case of RRIRARPPRLPRPRPRPHMDPRP, the “shrunken log2 fold change” value is reported as 0.281. For RRIRHRPPRLPRPRPRPDLMPRP, the “shrunken log2 fold change” value was -0.175. For RRIRNRPPRLPRPRPRPRKVPRP, the “shrunken log2 fold change” value was 0.445. In the case of RRIRNRPPRLPRPRPRPIMNPRP, the “shrunken log2 fold change” value is reported as -0.619. RRIRQRPPRLPRPRPRPLYIPRP was tested, and the “shrunken log2 fold change” value was -0.659.
